Experimental data published in publication PMC6325624, “A novel isoprimeverose‐producing enzyme from Phaeoacremonium minimum is active with low concentrations of xyloglucan oligosaccharides” (FEBS Open Bio, 2018).

B1: PmIPase (Phaeoacremonium minimum UCRPA7) (protein)
chain: VPVYKNPNATVDDRIADLLKRMTIEDKTAQLIQGDISNWINTTDGTFNATGLEWNMKYRASMFYVGYPTNWSTISNGVKIAQDYLVHNTTLGIPALVQSEGIHGFLIPNATIFNSPIAQACSWNPELVEKMGKAIAQESLALGVNNLFAPLGDLARELRFGRVEETYGEDGYLSGEMAYSYVKGLQSGNVAAMVKHFAAFATPEQGVNTAPVHGGERELLTTYLPSYKRAIIDAGAYTIMSAYHCYDGVPAVADYHVLTEILRDSWGFKYFVMSDAGGTDRLCNSFGMCEASPIDSEAVTSMVLPSGNDVEMGGGSYNFQKIPEMVAAGKLDEKLVDQAVSRVLRVKFEMGLFEKPYQGVAEDEASKYINTKETIELARQLDTESIVLLENHEDLLPLKKSAKIAVIGPMAHGYMNYGDYVPYRSQYRGVTPLDGIRAAVDDESSVSYAQGCERWSNDESGFPEAIAAAEGADVAVVVVGTWSRDQGELWQNLNATTGEHIDVASLNLVGAMPRLVSAIINTGKPTVVVFSSGKPVTEPWISTNASALVQQFYPSEQGGNALADVLFGDYNPSGRLSVSFPYDVGTTPIYYDYLNSARAWPNPGHAYPNGTLVFGSNYVLNTPLPLYDFGYGKSYSTFSYSEITLSKSTASSSDTVTVSVDVTNNSTRDGTEVVQLYVKDLVSSVVVPNKQLKGFAKIPIAAGATETVKLDLKVADLGLWDIKYNYVVEPGNFTIFIGSSSADFRANTTLTVV
notes: synthetic codon-optimized gene, secreted from Pichia pastoris X-33 (pGAPZalpha A), Myc and His6 tags kept; full length 777 aa (2334 bp), predicted 24-aa N-terminal signal peptide absent from calculated mass 85 kDa; N-glycosylated, ~101 kDa on SDS/PAGE; putative nucleophile Asp-299, acid/base Glu-523

Columns and labels:
[1] = tested on: OC[C@@H](O)[C@@H](O[C@@H]1O[C@H](CO[C@H]2OC[C@@H](O)[C@H](O)[C@H]2O)[C@@H](O[C@@H]2O[C@H](CO[C@H]3OC[C@@H](O)[C@H](O)[C@H]3O)[C@@H](O[C@@H]3O[C@H](CO[C@H]4OC[C@@H](O)[C@H](O)[C@H]4O)[C@@H](O)[C@H](O)[C@H]3O)[C@H](O)[C@H]2O)[C@H](O)[C@H]1O)[C@H](O)[C@@H](O)CO; experiment: bicinchoninate reducing-sugar assay, Michaelis-Menten nonlinear regression; format: biochemical, Aspergillus oryzae; details: 50 mM sodium phosphate pH 4.5, 60 °C, 5 min, 0.0625-4 mM substrate
Text: bicinchoninate reducing-sugar assay, Michaelis-Menten nonlinear regression on IpeA

[2] = substrate: OC[C@@H](O)[C@@H](O[C@@H]1O[C@H](CO[C@H]2OC[C@@H](O)[C@H](O)[C@H]2O)[C@@H](O[C@@H]2O[C@H](CO[C@H]3OC[C@@H](O)[C@H](O)[C@H]3O)[C@@H](O[C@@H]3O[C@H](CO[C@H]4OC[C@@H](O)[C@H](O)[C@H]4O)[C@@H](O)[C@H](O)[C@H]3O)[C@H](O)[C@H]2O)[C@H](O)[C@H]1O)[C@H](O)[C@@H](O)CO; experiment: as above; format: biochemical, Phaeoacremonium minimum; details: 50 mM sodium phosphate pH 4.5, 60 °C, 5 min, 0.0125-0.8 mM substrate
Text: bicinchoninate reducing-sugar assay, Michaelis-Menten nonlinear regression on PmIPase

Row | Molecule | Km [1] | kcat [1] | kcat/Km [1] | Km [2] | kcat [2] | kcat/Km [2]
1 | IpeA (Aspergillus oryzae RIB40) | 629 ± 51 µM | 586 ± 16 s⁻¹ | 931000 M⁻¹ s⁻¹ |  |  | 
2 | B1 |  |  |  | 47.5 ± 4.8 µM | 101 ± 3 s⁻¹ | 2.13e+06 M⁻¹ s⁻¹
